# Experimental data as given in patent publication US20100260805A1 (CIRCASSIA, published 2010).
# T1: DQA1*0102/DQB1*0602 (human), P01920
# T1 chain 1: not shown
# T1 chain 2: not shown
# T2: HLA-DRB1*0701 (human)
# T2 chain 1: not shown
# T2 chain 2: not shown
# T3: HLA-DRB1*1101 (human)
# T3 chain 1: not shown
# T3 chain 2: not shown
# T4: HLA-DRB1*1501 (human)
# T4 chain 1: not shown
# T4 chain 2: not shown
# T5: DQA1*0102/DQB1*0602 (human, UniProt P01920 33-230, limits assumed)
# T5 construct: human MHC class II allotype
# T5 MHC II alpha: not shown
# T5 MHC II beta: not shown
# B1: Fel d 1 peptide EQVAQYKALPVVLENA (peptide)
# peptide: EQVAQYKALPVVLENA
# notes: said to have been tested in an earlier study
# Target: T1, DQA1*0102/DQB1*0602 (human), P01920
# Test: not given
row,Binder,ratio of IC50 to that of the control peptide
1,CIIHRGKPFQLEA (modifications not checked) [HDM20],2.37

# Target: T2, HLA-DRB1*0701 (human)
# Test: not given
row,Binder,ratio of IC50 to that of the control peptide
1,CIIHRGKPFQLEA (modifications not checked) [HDM20],1.1

# Target: T3, HLA-DRB1*1101 (human)
# Test: not given
row,Binder,ratio of IC50 to that of the control peptide
1,CIIHRGKPFQLEA (modifications not checked) [HDM20],28

# Target: T4, HLA-DRB1*1501 (human)
# Test: not given
row,Binder,ratio of IC50 to that of the control peptide
1,CIIHRGKPFQLEA (modifications not checked) [HDM20],242

# Target: T6, HLA-DRB1*0101 (human)
# T6 construct: human MHC class II allotype
# Test: competitive MHC class II binding assay
row,Binder,binding result
1,AKIEIKASLDGLE [HDM27],no binding
2,KAVDEAVAAIEKS [HDM28],no binding
3,ETFDPMKVPDHSDK [HDM29A],no binding
4,NSVNVPSELDLRSLRT [HDM17],no binding
5,ETFDPMKVPDHSD [HDM29],no binding

# Target: T7, HLA-DRB1*0301 (human)
# T7 construct: human MHC class II allotype
# Test: competitive MHC class II binding assay
row,Binder,binding result
1,AKIEIKASLDGLE [HDM27],no binding
2,KAVDEAVAAIEKS [HDM28],no binding
3,ETFDPMKVPDHSDK [HDM29A],no binding
4,NSVNVPSELDLRSLRT [HDM17],no binding
5,ETFDPMKVPDHSD [HDM29],no binding

# Target: T8, HLA-DRB1*0401 (human)
# T8 construct: human MHC class II allotype
# Test: competitive MHC class II binding assay
row,Binder,binding result
1,AKIEIKASLDGLE [HDM27],no binding
2,KAVDEAVAAIEKS [HDM28],no binding
3,ETFDPMKVPDHSDK [HDM29A],no binding
4,NSVNVPSELDLRSLRT [HDM17],no binding
5,ETFDPMKVPDHSD [HDM29],no binding

# Target: T9, HLA-DRB1*0701 (human)
# T9 construct: human MHC class II allotype
# Test: competitive MHC class II binding assay
row,Binder,binding result
1,AKIEIKASLDGLE [HDM27],no binding
2,KAVDEAVAAIEKS [HDM28],no binding
3,ETFDPMKVPDHSDK [HDM29A],no binding
4,NSVNVPSELDLRSLRT [HDM17],no binding
5,ETFDPMKVPDHSD [HDM29],no binding

# Target: T10, HLA-DRB1*1101 (human)
# T10 construct: human MHC class II allotype
# Test: competitive MHC class II binding assay
row,Binder,binding result
1,AKIEIKASLDGLE [HDM27],no binding
2,KAVDEAVAAIEKS [HDM28],no binding
3,ETFDPMKVPDHSDK [HDM29A],no binding
4,NSVNVPSELDLRSLRT [HDM17],no binding
5,ETFDPMKVPDHSD [HDM29],no binding

# Target: T11, HLA-DRB1*1301 (human)
# T11 construct: human MHC class II allotype
# Test: competitive MHC class II binding assay
row,Binder,binding result
1,AKIEIKASLDGLE [HDM27],no binding
2,KAVDEAVAAIEKS [HDM28],no binding
3,ETFDPMKVPDHSDK [HDM29A],no binding
4,NSVNVPSELDLRSLRT [HDM17],no binding
5,ETFDPMKVPDHSD [HDM29],no binding

# Target: T12, HLA-DRB1*1501 (human)
# T12 construct: human MHC class II allotype
# Test: competitive MHC class II binding assay
row,Binder,binding result
1,AKIEIKASLDGLE [HDM27],no binding
2,KAVDEAVAAIEKS [HDM28],no binding
3,ETFDPMKVPDHSDK [HDM29A],no binding
4,NSVNVPSELDLRSLRT [HDM17],no binding
5,ETFDPMKVPDHSD [HDM29],no binding

# Target: T5, DQA1*0102/DQB1*0602
# Test: competitive MHC class II binding assay
row,Binder,binding result
1,AKIEIKASLDGLE [HDM27],no binding
2,KAVDEAVAAIEKS [HDM28],no binding
3,ETFDPMKVPDHSDK [HDM29A],no binding
4,NSVNVPSELDLRSLRT [HDM17],no binding
5,ETFDPMKVPDHSD [HDM29],no binding

# Target: T11, HLA-DRB1*1301
# Test: competitive MHC class II binding assay; competitor: control peptide HLA-DQB1*0603 21-36
row,Binder,ratio of IC50 to that of the control peptide [ratio]
1,RNIQVRGLKQMKRVG [HDM34],3.7
2,LDMRNIQVRGLKQ [HDM33],263

# Target: T5, DQA1*0102/DQB1*0602
# Test: competitive MHC class II binding assay; competitor: control peptide Human Insulin B 1-15
row,Binder,ratio of IC50 to that of the control peptide [ratio]
1,DTVRAEMTKVLAP [HDM49],1.7
2,HDDVVSMEYDLAYKL [HDM39A],0.1
3,DGLEVDVPGIDPNACH (purity 66.7%) [HDM23A],0.76
4,DGVLACAIATHAKIR [HDM26A],0.61
5,RNQSLDLAEQELVDCASQH [HDM03C],0.16
6,RTVTPIRMQGGCG [HDM02],0.03
7,RYVAREQSCRRPN [HDM06],0.86

# Target: T12, HLA-DRB1*1501
# Test: competitive MHC class II binding assay; competitor: control peptide Human myelin basic protein 85-99
row,Binder,ratio of IC50 to that of the control peptide [ratio]
1,DTVRAEMTKVLAP [HDM49],671
2,RTVTPIRMQGGCG [HDM02],80
3,REALAQTHSAIAVI [HDM09A],200
4,RNIQVRGLKQMKRVG [HDM34],769

# Target: T6, HLA-DRB1*0101
# Test: competitive MHC class II binding assay; competitor: control peptide Influenza haemagglutinin 307-319;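 for ratio of IC50 to that of the control peptide: each peptide was tested for its capacity to displace a known reference binder from human MHC class II allotypes, and its IC50 is expressed relative to that of the reference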
row,Binder,ratio of IC50 to that of the control peptide [ratio]
1,KPFQLEAVFEANQNTK [HDM21A],200
2,RGKPFQLEAVFEANQNT [HDM21B],13.5
3,DGVLACAIATHAKIR [HDM26A],42.3
4,KPFQLEAVFEANQNT [HDM21],92

# Target: T8, HLA-DRB1*0401
# Test: as above
row,Binder,ratio of IC50 to that of the control peptide [ratio]
1,KPFQLEAVFEANQNTK [HDM21A],52.2
2,RGKPFQLEAVFEANQNT [HDM21B],0.78
3,HDDVVSMEYDLAYKL [HDM39A],76.2
4,EAVFEANQNTKTAK [HDM22A],329
5,KPFQLEAVFEANQNT [HDM21],11.2

# Target: T9, HLA-DRB1*0701
# Test: as above
row,Binder,ratio of IC50 to that of the control peptide [ratio]
1,HDDVVSMEYDLAYKL [HDM39A],0.71
2,IDLRQMRTVTPIR [HDM01],16
3,VSMEYDLAYKLGDLH [HDM40A],2.29
4,DGVLACAIATHAKIR [HDM26A],16.3
5,DKFERHIGIIDLK [HDM30],6.2
6,REALAQTHSAIAVI [HDM09A],0.49
7,VDFKGELAMRNIE [HDM51],20.9
8,LDMRNIQVRGLKQ [HDM33],46.5
9,TAIFQDTVRAEMTK [HDM48],15.7

# Target: T10, HLA-DRB1*1101
# Test: as above
row,Binder,ratio of IC50 to that of the control peptide [ratio]
1,KPFQLEAVFEANQNTK [HDM21A],10.3
2,RGKPFQLEAVFEANQNT [HDM21B],4.1
3,VSMEYDLAYKLGDLH [HDM40A],6
4,RGLKQMKRVGDAN [HDM35],1.26
5,REALAQTHSAIAVI [HDM09A],21.1
6,RNIQVRGLKQMKRVG [HDM34],3.38
7,EAVFEANQNTKTAK [HDM22A],80
8,VDFKGELAMRNIE [HDM51],30.9
9,LDMRNIQVRGLKQ [HDM33],41.5
10,TAIFQDTVRAEMTK [HDM48],13.6
11,KPFQLEAVFEANQNT [HDM21],11.7
12,RYVAREQSCRRPN [HDM06],30.4

# Target: T7, HLA-DRB1*0301
# Test: competitive MHC class II binding assay; competitor: control peptide Myco. tuberculosis/leprae hsp 65 2-16
row,Binder,ratio of IC50 to that of the control peptide [ratio]
1,IDLRQMRTVTPIR [HDM01],19.2
2,DGLEVDVPGIDPNACH (purity 66.7%) [HDM23A],347
3,TAIFQDTVRAEMTK [HDM48],211

# Target: T12, HLA-DRB1*1501
# Test: competitive MHC class II binding assay, high stringency screen; competitor: control peptide Myelin Basic Protein 85-99
row,Binder,ratio of IC50 to that of the control peptide [ratio]
1,B1,0.97
